Target: T1, NlFMD-F (female-specific isoform, SR-rich protein) (Nilaparvata lugens, UniProt A0A974LNP1 1-613)
T1 sequence: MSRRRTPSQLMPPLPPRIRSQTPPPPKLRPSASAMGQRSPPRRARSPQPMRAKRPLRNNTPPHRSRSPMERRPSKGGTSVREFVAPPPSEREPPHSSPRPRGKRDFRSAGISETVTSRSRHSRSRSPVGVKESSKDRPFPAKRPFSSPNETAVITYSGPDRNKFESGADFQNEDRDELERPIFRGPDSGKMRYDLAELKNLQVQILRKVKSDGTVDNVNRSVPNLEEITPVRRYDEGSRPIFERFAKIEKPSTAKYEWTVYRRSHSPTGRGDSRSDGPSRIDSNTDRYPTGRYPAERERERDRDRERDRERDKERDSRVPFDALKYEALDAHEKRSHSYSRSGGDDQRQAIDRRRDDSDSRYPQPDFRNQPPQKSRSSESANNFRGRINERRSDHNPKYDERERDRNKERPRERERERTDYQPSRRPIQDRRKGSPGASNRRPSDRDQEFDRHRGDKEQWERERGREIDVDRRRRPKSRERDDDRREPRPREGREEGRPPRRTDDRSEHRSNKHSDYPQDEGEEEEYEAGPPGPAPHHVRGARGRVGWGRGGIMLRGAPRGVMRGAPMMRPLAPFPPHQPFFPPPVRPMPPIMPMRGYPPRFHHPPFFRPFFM
Assay: MST

Binder: GAAGAAGAA (ssRNA) [GAAGAAGAA repeat (RAAGAA motif)]
- binding result: no binding

— PMC8626073
